Measurements taken from the Human Domainome abundance scans (Beltran et al. 2025).
± gives the uncertainty stated by the source.

B1: Peroxisome proliferator-activated receptor delta, residues 71 to 145; numbered along this chain, Q03181 (parent)
chain: NMECRVCGDKASGFHYGVHACEGCKGFFRRTIRMKLEYEKCERSCKIQKKNRNKCQYCRFQKCLALGMSHNAIRF

Variants of: B1
Test: abundance fitness (aPCA) (normalised: wild type 0, dead -1); higher = more abundant; growth selection in yeast, the domain comes from the species named
Conditions: Homo sapiens

Variant	abundance fitness
F27V	-0.951 ± 0.11
D9I	-0.345 ± 0.12
A65S	-0.011 ± 0.037
H70G	0.048 ± 0.055
E22S	-0.405 ± 0.052
C55L	-0.98 ± 0.13
C58Q	-0.848 ± 0.17
I73E	0.288 ± 0.043
Y57M	-0.867 ± 0.22
A11K	-0.482 ± 0.091
H19V	-0.083 ± 0.046
K10H	-0.027 ± 0.094
T31K	-0.917 ± 0.22
Q61F	-0.909 ± 0.3
C7H	-0.21 ± 0.14
A20W	-0.534 ± 0.11
G67C	-0.469 ± 0.11
H15Q	-0.188 ± 0.066
C55H	-0.441 ± 0.29
R5G	-0.045 ± 0.031
K54M	0.052 ± 0.052
R29N	0.085 ± 0.066
E3D	0.059 ± 0.064
R43V	-0.158 ± 0.049

Variant	abundance fitness
H15C	-0.044 ± 0.066
A65R	-0.086 ± 0.032
G26D	0.114 ± 0.056
R52M	-0.078 ± 0.056
R52I	0.012 ± 0.087
F14P	-0.14 ± 0.051
R52C	-0.241 ± 0.076
G26N	0.055 ± 0.067
Y16K	-0.356 ± 0.086
K40L	-0.077 ± 0.037
E22F	-0.343 ± 0.091
F60K	-0.742 ± 0.21
N51C	-0.451 ± 0.12
Y57F	-0.186 ± 0.1
Q56I	-0.599 ± 0.19
N1E	-0.07 ± 0.065
C45T	-1 ± 0.17
C63G	-0.591 ± 0.06
H15S	-0.117 ± 0.041
L36F	-0.162 ± 0.091
I73S	0.071 ± 0.035
R43E	0.013 ± 0.05
E3C	-0.278 ± 0.076
K40S	-0.255 ± 0.051

Variant	abundance fitness
N71I	-0.361 ± 0.14
K46S	0.006 ± 0.038
E3F	-0.086 ± 0.08
A20F	0.145 ± 0.13
K10N	-0.075 ± 0.08
N1R	-0.296 ± 0.064
E22W	-0.425 ± 0.095
S44M	0.028 ± 0.047
F28K	-0.758 ± 0.17
E22K	-0.297 ± 0.065
A11C	-0.367 ± 0.075
R74N	0.011 ± 0.15
K40Y	-0.088 ± 0.081
E37R	-0.069 ± 0.034
M68K	-0.769 ± 0.14
K54T	-0.017 ± 0.046
C41P	-0.093 ± 0.16
F75K	0.238 ± 0.11
M2C	-0.064 ± 0.08
N53E	0.123 ± 0.042
R74T	0.071 ± 0.062
S69G	-0.001 ± 0.035
A65G	-0.185 ± 0.035
C55I	-0.67 ± 0.22

Variant	abundance fitness
D9Q	-0.374 ± 0.077
M2H	-0.276 ± 0.12
Y38I	-0.483 ± 0.12
K50W	-0.056 ± 0.042
C24T	-0.723 ± 0.11
K46V	0.023 ± 0.032
C63T	-0.85 ± 0.13
M68W	-0.148 ± 0.049
E39H	-0.336 ± 0.1
C45F	-0.647 ± 0.13
V6W	-0.934 ± 0.14
M68T	-0.769 ± 0.14
S12N	-0.098 ± 0.067
Q61E	-0.037 ± 0.041
K25C	-0.014 ± 0.057
G17A	-0.465 ± 0.062
Y16N	-0.032 ± 0.069
F60P	-0.802 ± 0.11
R33W	-0.108 ± 0.061
K40V	0.026 ± 0.036
E22V	-0.325 ± 0.055
E39N	-0.222 ± 0.075
Q61H	-0.248 ± 0.092
H70V	0.099 ± 0.065

Variant	abundance fitness
C63L	-0.547 ± 0.062
C55P	-0.864 ± 0.34
Q56L	-0.031 ± 0.039
V6E	-0.561 ± 0.11
K50N	0.147 ± 0.085
H15Y	-0.088 ± 0.061
K54F	0.065 ± 0.072
Y57P	-0.961 ± 0.18
K10V	0 ± 0.038
K50V	-0.129 ± 0.041
M2T	-0.156 ± 0.052
Y16F	-0.085 ± 0.082
K46D	0.142 ± 0.04
H70S	0.015 ± 0.067
E22L	-0.508 ± 0.056
S69W	-0.191 ± 0.059
F60V	-0.622 ± 0.066
F14R	-0.138 ± 0.035
V18N	-0.372 ± 0.14
R52E	-0.037 ± 0.042
C21L	-0.942 ± 0.11
K10M	-0.107 ± 0.059
C45M	-0.548 ± 0.11
E42N	-0.335 ± 0.1

Variant	abundance fitness
G23W	0.084 ± 0.045
K49H	0.602 ± 0.38
C58T	-0.957 ± 0.15
T31I	-0.49 ± 0.22
C7Y	-0.673 ± 0.14
Y57S	-0.35 ± 0.061
A20Q	-0.874 ± 0.21
M2F	-0.432 ± 0.39
E3P	-0.353 ± 0.058
Q56W	-0.341 ± 0.059
G17V	-0.647 ± 0.078
I73Y	-0.097 ± 0.072
A11G	-0.232 ± 0.036
Y38C	-0.741 ± 0.15
K35S	0.013 ± 0.039
L36Y	-0.047 ± 0.084
R43P	-0.168 ± 0.072
H19R	-0.049 ± 0.032
C4T	-0.962 ± 0.15
L66D	-0.521 ± 0.12
C41H	-0.361 ± 0.24
R30E	0.074 ± 0.045
Y57D	-0.335 ± 0.11
F60S	-0.557 ± 0.09

Variant	abundance fitness
E22A	-0.256 ± 0.045
M68S	-0.746 ± 0.1
I32Y	-0.133 ± 0.082
Y57A	-0.355 ± 0.064
F75N	-0.021 ± 0.094
F27D	-0.41 ± 0.11
R43G	-0.085 ± 0.033
C45V	-0.84 ± 0.08
S69D	0.147 ± 0.05
G13E	-0.274 ± 0.052
Y57R	-0.671 ± 0.069
F14C	-0.076 ± 0.059
A65W	-0.231 ± 0.049
C63D	-0.635 ± 0.14
L36H	-0.151 ± 0.086
N71R	-0.242 ± 0.036
C41L	-1.27 ± 0.34
C63Y	-0.232 ± 0.078
Q56F	-0.079 ± 0.096
I47Y	-0.419 ± 0.11
E37T	-0.121 ± 0.048
C45H	-0.218 ± 0.17
K10S	-0.106 ± 0.038
